Reference: US20180230232A1 (VIB VZW, published 2018)

B1: NANOBODY B9 (Nb_B9) (VHH)
VHH: DVQLQESGGGSVQAGGSLRLSCAASEYTYGYCSMGWYRQAPGKERELVSTITSDGSTSYVDSVKGRFTISQDNAKNTVYLQMNSLKPEDTAKYYCYTKTCANKLGAKFISWGQGTQVTVSS
notes: dromedary VHH; his-tagged from E. coli; HA-tagged periplasmic extract in the ELISA screen; also called VHH B9; not shown: C-terminal his6-tag (pHEN6)
B2: NANOBODY 10C4 (Nb_10C4) (VHH)
VHH: QVQLQESGGGSVQAGGFLRLSCAASGYTYSTCSMAWYRQAPGKERELVSSIRNDGSTAYADSVKGRFTISQDNAKNTVYLQMNSLKPEDTAMYYCNIRIGVGPGGTCSIYAPYWGEGTQVTVSS
notes: from the dromedary libraries; purified from pHEN6; not shown: C-terminal his6-tag (pHEN6)
B3: NANOBODY 4A2 (Nb_4A2) (VHH)
VHH: QVQLQESGGGLVQPGGSLRLSCAASGFTFETQYMTWVRQAPGKGPEYVSSINSGGTIKYYANSSVKGRFTISRDNAKNTLYLQMNNLRPEDTAIYYCQLGQWAGVGAASSRGQGTQVTVSS
notes: from the llama library; purified from pHEN6; not shown: C-terminal his6-tag (pHEN6)

Experiments:
[1] = biological target: BACE1 of primary cultured mouse neurons (mouse, UniProt P56818 46-501); experiment: cell-based or functional assay
Sequence of BACE1 of primary cultured mouse neurons (P56818 46-501): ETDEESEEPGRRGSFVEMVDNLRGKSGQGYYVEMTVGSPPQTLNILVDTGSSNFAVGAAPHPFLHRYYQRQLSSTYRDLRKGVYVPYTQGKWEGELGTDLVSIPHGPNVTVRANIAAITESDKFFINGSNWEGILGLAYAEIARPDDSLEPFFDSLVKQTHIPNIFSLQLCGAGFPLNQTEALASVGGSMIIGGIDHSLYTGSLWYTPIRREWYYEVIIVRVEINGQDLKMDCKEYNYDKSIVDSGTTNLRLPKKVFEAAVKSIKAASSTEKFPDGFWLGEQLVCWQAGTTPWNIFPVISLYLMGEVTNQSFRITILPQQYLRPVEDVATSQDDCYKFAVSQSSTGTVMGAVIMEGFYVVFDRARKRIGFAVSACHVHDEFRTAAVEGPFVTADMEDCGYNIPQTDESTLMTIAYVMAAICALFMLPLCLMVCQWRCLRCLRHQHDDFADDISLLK

[2] = biological target: recombinant BACE1 of the cell-free enzymatic assays (FRET assay, MBP-ELISA) (human, UniProt P56817 46-460, limits assumed); experiment: cell-based or functional assay
Sequence of recombinant BACE1 of the cell-free enzymatic assays (FRET assay, MBP-ELISA) (P56817 46-460 limits assumed): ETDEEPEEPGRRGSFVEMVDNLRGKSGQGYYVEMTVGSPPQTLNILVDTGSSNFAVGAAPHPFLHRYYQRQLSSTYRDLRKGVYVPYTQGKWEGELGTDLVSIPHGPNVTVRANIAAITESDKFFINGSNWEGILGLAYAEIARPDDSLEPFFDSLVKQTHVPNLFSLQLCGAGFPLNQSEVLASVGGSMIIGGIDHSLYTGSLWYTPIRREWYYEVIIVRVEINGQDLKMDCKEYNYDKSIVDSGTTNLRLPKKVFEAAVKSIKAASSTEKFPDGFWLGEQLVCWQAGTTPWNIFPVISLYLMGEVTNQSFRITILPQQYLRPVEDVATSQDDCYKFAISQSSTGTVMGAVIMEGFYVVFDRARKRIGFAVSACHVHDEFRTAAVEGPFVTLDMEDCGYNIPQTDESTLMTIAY

human BACE1 ectodomain [3] = biological target: T1, human BACE1 ectodomain (human, UniProt P56817 22-457); experiment: SPR (Biacore), pH 4.5
T1 construct: extracellular domain; also called the ectodomain of human BACE1
T1 sequence (P56817 22-457): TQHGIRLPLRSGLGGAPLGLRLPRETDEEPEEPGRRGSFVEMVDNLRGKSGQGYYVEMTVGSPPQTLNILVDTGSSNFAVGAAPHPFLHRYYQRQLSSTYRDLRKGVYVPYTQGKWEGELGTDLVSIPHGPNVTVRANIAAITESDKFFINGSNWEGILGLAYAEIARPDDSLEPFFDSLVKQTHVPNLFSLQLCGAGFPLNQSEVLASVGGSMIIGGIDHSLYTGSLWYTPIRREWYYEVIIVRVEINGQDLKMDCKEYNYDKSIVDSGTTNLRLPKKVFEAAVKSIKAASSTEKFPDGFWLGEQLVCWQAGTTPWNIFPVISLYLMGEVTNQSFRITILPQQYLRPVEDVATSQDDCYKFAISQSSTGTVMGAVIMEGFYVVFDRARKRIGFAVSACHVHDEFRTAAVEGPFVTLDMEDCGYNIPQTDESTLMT

human BACE1 ectodomain [4] = biological target: T1, human BACE1 ectodomain; experiment: SPR (Biacore), pH 7.0
mouse BACE1 [5] = biological target: T2, mouse BACE1 (mouse, UniProt P56818 46-457, limits assumed); experiment: SPR (Biacore), pH 4.5
T2 sequence (P56818 46-457 limits assumed): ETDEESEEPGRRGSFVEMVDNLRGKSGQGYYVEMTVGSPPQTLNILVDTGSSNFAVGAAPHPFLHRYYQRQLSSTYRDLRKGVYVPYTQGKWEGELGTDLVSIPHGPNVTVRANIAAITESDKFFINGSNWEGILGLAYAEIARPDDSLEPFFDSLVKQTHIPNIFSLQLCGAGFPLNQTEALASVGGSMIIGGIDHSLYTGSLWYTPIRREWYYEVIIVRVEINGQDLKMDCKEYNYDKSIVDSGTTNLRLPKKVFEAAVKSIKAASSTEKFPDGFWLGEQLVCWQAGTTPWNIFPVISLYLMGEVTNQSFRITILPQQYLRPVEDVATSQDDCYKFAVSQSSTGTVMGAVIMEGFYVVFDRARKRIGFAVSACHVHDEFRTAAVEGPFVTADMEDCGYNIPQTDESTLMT

mouse BACE1 [6] = biological target: T2, mouse BACE1; experiment: SPR (Biacore), pH 7.0

| Binder | IC50 (CTFβ level) in the neuron assay [1] | EC50, FRET assay dose-response [2] | Kd (human BACE1 ectodomain [3]) | koff (human BACE1 ectodomain [3]) | kon (human BACE1 ectodomain [3]) | Kd (human BACE1 ectodomain [4]) | koff (human BACE1 ectodomain [4]) | kon (human BACE1 ectodomain [4]) | Kd (mouse BACE1 [5]) | koff (mouse BACE1 [5]) | kon (mouse BACE1 [5]) | Kd (mouse BACE1 [6]) | koff (mouse BACE1 [6]) | kon (mouse BACE1 [6]) | IC50, FRET assay dose-response [2] |
| --- | --- | --- | --- | --- | --- | --- | --- | --- | --- | --- | --- | --- | --- | --- | --- |
| B1 | ~500 nM | 4.1 nM | 1.96 nM | 0.0013 s⁻¹ | 662000 M⁻¹ s⁻¹ | 3.67 nM | 0.00098 s⁻¹ | 267000 M⁻¹ s⁻¹ | 1.11 nM | 0.00118 s⁻¹ | 1.06e+06 M⁻¹ s⁻¹ | 1.77 nM | 0.00089 s⁻¹ | 502000 M⁻¹ s⁻¹ |  |
| B2 |  |  | 27.7 nM | 0.0125 s⁻¹ | 451000 M⁻¹ s⁻¹ | 74.7 nM | 0.00792 s⁻¹ | 106000 M⁻¹ s⁻¹ | 10 nM | 0.00988 s⁻¹ | 984000 M⁻¹ s⁻¹ | 41.9 nM | 0.00797 s⁻¹ | 190000 M⁻¹ s⁻¹ | 150 nM |
| B3 |  |  | 21.2 nM | 0.00841 s⁻¹ | 397000 M⁻¹ s⁻¹ | 48.2 nM | 0.0231 s⁻¹ | 479000 M⁻¹ s⁻¹ | 8.61 nM | 0.00216 s⁻¹ | 251000 M⁻¹ s⁻¹ | 35.2 nM | 0.00581 s⁻¹ | 165000 M⁻¹ s⁻¹ | 1200 nM |
